Experimental data taken from patent US11752211B2, “Fatty acids and their use in conjugation to biomolecules” (NOVARTIS AG, priority 2014, dated 2023).
Positions of bridges follow the written chain, without caps; N, C: chain ends. No end group written: not given here.

Experiments:
MC3R = molecular target: T1, MC3R (Homo sapiens, UniProt P41968); assay: MC3 cAMP assay in HEK293/MC3R cells (antagonist protocol); assay type: cell-based; settings: HEK293/MC3R stable cell line, against NDP-α-MSH EC80
T1 construct: expressed in transfected cells; host or cells: HEK293
T1 sequence (P41968 whole entry, species assumed): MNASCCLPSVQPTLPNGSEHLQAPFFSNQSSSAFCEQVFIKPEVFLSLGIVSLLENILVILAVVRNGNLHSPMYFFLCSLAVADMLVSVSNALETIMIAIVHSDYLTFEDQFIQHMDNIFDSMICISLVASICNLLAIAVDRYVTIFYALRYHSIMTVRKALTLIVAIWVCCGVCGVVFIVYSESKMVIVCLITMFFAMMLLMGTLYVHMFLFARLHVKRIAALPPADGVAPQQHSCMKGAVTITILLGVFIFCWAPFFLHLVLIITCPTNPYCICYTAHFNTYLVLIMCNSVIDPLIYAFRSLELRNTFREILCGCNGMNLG
Description: Cells: HEK293/MC3R stable cell line
• I. Aspirate conditioned medium • II. Wash with 2.5 mL of DPBS (Gibco, Cat. No. 14190) • III. Add 2 mL of 0.25% Trypsin-EDTA (Gibco, Cat. No. 25200-056) • IV. Leave the flask for few minutes in incubator, tap the flask a few time to detach cells. • V. Add 10 mL of the complete medium to stop Trypsin-EDTA treatment and mix it well by pipetting softly a few times to re-suspend clumping cells • VI. Transfer 1.5 ml of cells into a new 150 cm flask containing 20 ml of complete media • VII. Transfer the remaining suspension into a 50 mL centrifuge tube • VIII. Spin down at 1200 rpm for 4 mins. Aspirate supernatant • IX. Add 6 mL of the assay buffer to the tube and re-suspend the cells by softly pipetting • X. Transfer 0.5 mL of the suspension into a sample vial for Vi-cell and add another 0.5 ml of PBS. • XI. Count cell number by using a Vi-cell *Record cell density and viability every time • i. Plate cells at 4K/well in 10 ul/well of assay buffer containing IBMX. • ii. Leave the plate in incubator for ˜30 mins before assay is started on suspension cells.
Two step cAMP protocol is followed for cAMP determination.
• I. To 10 ul/well of cells add 5 ul of AgRP prepared at 3× in assay buffer only to antagonist wells. • II. Add 5 ul of buffer to positive control wells (wells that will have NDP-α-MSH). • III. Incubate the plate at 37° C. for ˜20 mins. • IV. […]

[1] = In vivo plasma stability of AgRP conjugates, 10 nanomoles per rat iv, AgRP ELISA; settings: male Sprague-Dawley rats, 10 nanomoles per rat intravenously
Description: 10 nanomoles of conjugate was dissolved in 300 μL of PBS (Phosphate buffered saline) to form Dosing solution. Dosing solution ([…]) was administered intravenously to male Sprague-Dawley rats via lateral tail vein (corresponding to a dose 10 nanomoles per rat). Blood was collected via tail snip at prescribed times after dosing and immediately placed on wet ice. These samples were centrifuged at 4C, with supernatant plasma transferred to a fresh tube for analysis.
Standard curve preparation: The two fatty acid conjugates of examples 27A and 27B and one mature human AgRP peptide were used to make standards. Intermediate stock solutions of each AgRP were prepared by diluting the stock labeled peptides in ELISA sample diluent with casein to 100 ug/ml. For assay, intermediates were diluted to a top standard concentration of 2500 pg/mL and then diluted 2-fold serially to 16 points including a zero dose standard in ELISA sample diluent with bovine serum albumin (BSA). Sample dilution: Plasma samples were diluted 10-fold and then 5-fold serially out to 31,250-fold in ELISA sample diluent with BSA. […] Plates were washed a final time and a chemiluminescent substrate was added to all wells and plates were read immediately on a Spectramx M5 for light output. Data analysis: Raw data was organized and analyzed for basic PK parameters. […]

RXFP1 [2] = molecular target: T2, RXFP1 (Homo sapiens, UniProt Q9HBX9); assay: Serelaxin in vitro activity in presence of bovine serum albumin and human serum #2: cAMP in RXFP1-HEK293 cells; assay type: cell-based
T2 construct: expressed in transfected cells; host or cells: HEK293
T2 sequence (Q9HBX9 1-757): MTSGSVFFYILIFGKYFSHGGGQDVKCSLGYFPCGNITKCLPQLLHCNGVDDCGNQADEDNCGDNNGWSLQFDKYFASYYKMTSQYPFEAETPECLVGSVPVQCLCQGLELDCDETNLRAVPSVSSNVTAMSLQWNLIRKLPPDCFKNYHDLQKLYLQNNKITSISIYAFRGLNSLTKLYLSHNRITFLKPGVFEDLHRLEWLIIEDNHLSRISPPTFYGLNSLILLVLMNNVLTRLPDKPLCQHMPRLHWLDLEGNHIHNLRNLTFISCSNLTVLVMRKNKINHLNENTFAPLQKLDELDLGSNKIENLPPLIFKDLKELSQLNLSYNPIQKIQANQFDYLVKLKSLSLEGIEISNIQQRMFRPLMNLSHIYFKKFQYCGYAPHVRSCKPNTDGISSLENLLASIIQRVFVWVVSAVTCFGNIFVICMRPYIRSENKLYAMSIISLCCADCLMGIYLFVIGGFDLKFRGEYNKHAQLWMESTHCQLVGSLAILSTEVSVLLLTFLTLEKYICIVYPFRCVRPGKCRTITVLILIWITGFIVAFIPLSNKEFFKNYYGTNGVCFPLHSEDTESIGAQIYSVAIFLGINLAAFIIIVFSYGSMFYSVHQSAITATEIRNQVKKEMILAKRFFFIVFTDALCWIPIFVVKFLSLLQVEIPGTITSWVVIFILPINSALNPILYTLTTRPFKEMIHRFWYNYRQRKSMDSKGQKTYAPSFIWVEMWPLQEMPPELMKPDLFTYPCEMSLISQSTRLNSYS
Description: In Vitro Activity in Presence of Bovine Serum Albumin and Human Serum #2: Materials: DMEM: F12 media (Gibco, cat #11320) IBMX (Sigma, cat #15879) 384 solid bottom white plates (Greiner bio-one, cat #781945) 20,000 dynamic-2 cAMP kit (Cisbio, cat #62AM4PEC) Adenosine 3′, 5′-cyclic monophosphate (Sigma, cat #A9501) Matrix-plate mate plus (used for adding 5 μl of assays reagents) PBS-Gibco (cat #10010-023) 1M HEPES Gibco (cat-15630-080) 1×HBSS Gibco (cat-14175-095) Assay buffer—1×HBSS+10 mM HEPES Bovine serum albumin cat #A2153 (Sigma-Aldrich) Sigma Aldrich—H4522 (Human serum) Conditions:
10% Human Serum (Sigma aldrich—H4522)
• Serelaxin 10 ul stock dissolved in 190 ul of PBS, final concentration is 40 μM, which are diluted 3× fold by transferring 30 ul to 60 ul of the assay buffer 11 point curve, (A2-A12) 12th is zero. Serelaxin-FA conjugate: Stock is (287.79 uM) i.e 2.61 mg/ml MW is 9069 Daltons • Serelaxin 27.798 ul stock dissolved in 172.2 ul of PBS, final concentration is 40 μM, which are diluted 3× fold by transferring 30 ul to 60 ul of the assay buffer 11 point curve, (A2-A12) 12th is zero. BSA Stock Solution Preparation: For 666.66 uM BSA: Made assay buffer 30 mls by dissolving 1.32 gms of BSA For 600 uM BSA: Made assay buffer 30 ms by dissolving 1.18 gms of BSA No BSA, has only assay buffer Human Serum For 4.44% HS: 1.34 mls in 28.66 mls of assay buffer For 4% HS: 1.2 mls in 28.8 mls of assay buffer For 11.11% HS: 3.33 mls in 26.67 mls of assay buffer For 10% HS: 3 mls in 27 mls of assay buffer Procedure: Day 1: Seed 8,000 cells/well of RXFP1-HEK293 and HEK293 (parental) cells in 10 μl/well volume in basal DMEM:F12 media-on solid bottom plate. Incubate cells overnight at 37° C./5% CO2. Day 2: • 1. Wash cells 2× times with 50 ul of assay buffer and were tapped gently on paper towel to get rid of assay buffer after first and second wash • 2. Cells were pretreated with 15 ul of media with IBMX (666.66 uM) containing respective media (600 uM of BSA, 4% BSA, 10% Human serum and assay buffer alone) for 30 minutes at 37° C. • 3. Serially dilute cpds 3× times, 11 point curve—transferring 15 ul of cpds from previous well to subsequent well with 30 ul of PBS, well 11 is PBS only • 4. Dilute (1:10) in assay buffer from step 3 (i.e is 10 ul to 90 ul of assay buffer) • 5. Dilute again from step 4 (1:10) in respective media (666.66 μM of BSA &4.44% & 11.11% Human serum and assay buffer) final con of the BSA is 600 μM and Human serum is 4 & 10% • 6. (*Incubate the cpds for 1 hr at RT in their respective media, before adding to cells) • 7. […] Read FRET on Envision • 12. cAMP std curves were made in their respective media. cAMP Standard Curve Dilutions:
The initial stock of cAMP standard is 1120000 nM • 1. […] Read on HTRF—Envision Analysis: […]

RXFP1 [3] = molecular target: T2, RXFP1; assay: Serelaxin in vitro activity assay #1: cAMP HTRF in RXFP1-HEK293 cells; assay type: cell-based; settings: DMEM:F12 media
Description: Protocol: Day 1: Seeded RXFP1-HEK293/parental HEK293 cells 8k in 10 μl of DMEM: F12 media in solid bottom PDL coated white plates Day 2: Ran assay with the compound Agonist Mode (Overview): • Cells in 10 μl of DMEM:F12 media @37° C. O/N • 5 μl of 2000 μM (4×) of IBMX to the cells for 30 min at 37° C. • 5 μl of 4× compound/Serelaxin to the above for 30 min at 37° C. […]
Read FRET signal—Envision 665 nm/620 nm […]

[4] = test system: high fat diet-induced obese (DIO) mice; assay: Glucose-stimulated insulin secretion (GSIS) assay; assay type: in vivo; settings: single IV dose 45 min before oral glucose 3 g/kg
Description: GSIS test was performed as a measurement of in vivo pancreatic beta cell function following recombinant human Prolactin-inducible Protein (hPIP) in high fat diet-induced obese (DIO) mice. Briefly, mice (m=5-7/group) were fasted overnight (5:00 PM-8:00 AM) and on the test day body weight and blood glucose (BG; determined with Embrace glucose meters) which was designated as baseline timepoint. Next, mice were administered with hPIP (native and FA-conjugated PIP; solution in PBS; administered at 4 ml/kg body weight) or a vehicle-control (PBS) once intravenuously (IV). Forty-five min following the hPIP administration, all mice were dosed with oral glucose (3 g/kg dextrose; solution in PBS; administered at 4 ml/kg body weight). Blood glucose was measured immediately before the glucose load (designated as 0 min time point) and at 15 and 30 min post-glucose. Blood samples were collected for plasma isolation and measurement of plasma insulin were carried out at 0, 15 and 30 min post-glucose.

[5] = Pharmacokinetics (PK) assay of hPIP, single IV administration; assay type: in vivo; settings: DIO mice
Description: Plasma exposure of hPIP were measured in DIO mice following a single IV administration. Briefly, freely-fed DIO mice (n=2) were administered with hPIP (native and FA-conjugated PIP; solution in PBS; administered at 4 ml/kg body weight) once intravenuously (IV). Blood samples were collected and plasma isolated at 0.25, 0.5, 1, 3, 7, 24 and 48 hrs post-dose by and in-house ELISA assay (protocol shown below).

For “AgRP: mature human AgRP peptide (SSRRCVRLHESCLGQQVPCCDPCATCYCRFFNAFCYCRKLGTAMNPCSRT; disulfide 12-26, 19-37, 5-20, 23-47, 28-35)”, the EC50 (MC3R) was 12 nM and the “In vivo Plasma stability t½” value [1] was 4.4 h.

In the case of “Serelaxin: Recombinant 1-chain human relaxin (DSWMEEVIKLCGRELVRAQIAICGMSTWSCFRALSRKTCGVHCCKNALASYLE; Serelaxin Sequence)”, the EC50 (RXFP1 [2]; 0% Plasma) is reported as 8 nM, the EC50 (RXFP1 [2]; 4% Plasma) is reported as 0.3 nM and the EC50 (RXFP1 [2]; 10% Plasma) is reported as 0.4 nM. The EC50 (RXFP1 [2]; 600 uL BSA) was 0.7 nM and the EC50 (RXFP1 [3]) was 1.12 nM.

B1: Unconjugated PIP: recombinant human Prolactin-inducible Protein (hPIP), native (protein, UniProt P12273 29-146, looked up)
Prolactin-inducible protein: QDNTRKIIIKNFDIPKSVRPNDEVTAVLAVQTELKECMVVKTYLISSIPLQGAFNYKYTACLCDDNPKTFYWDFYTNRTVQIAAVVDVIRELGICPDDAAVIPIKNNRFYTIEILKVE
In the case of B1, the “Plasma Insulin AUCB (ng/mL*min) compared to the vehicle” value [4] is reported as “+29%”, the Cmax [5] is reported as 220 nM and the MRT [5] is reported as 12.0 h.
